Reference: the supplement of paper PMC10567573

B1: SLC35F2 (parent)
chain: FVAFALCMFCLYSFMPLVIKVTSA
B2: KCNA4 (parent)
chain: YQLGEEALLKFREDEGFVREEEDR

Variants of: B1
Assay: protein stability index of a GFP-peptide fusion (GPS, HEK-293T) (PSI 1-6); higher = more stable
Conditions: c terminus: a fixed tail appended
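Also: lentivirally expressed fusions sorted by FACS into six bins by GFP to DsRed ratio, PSI derived from sequencing read proportions per bin multiplied by bin number.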

Variant	protein stability index
V18T	2.57
V18R	3.05
V18Y	2.54
V18S	2.91
V18W	2.6
K20N	3.16
K20V	2.56
K20D	2.22
K20Y	2.76
K20R	3.56
K20H	1.78
K20F	2.03
K20E	2.71
K20G	2.9
K20C	3.38
K20M	2.62
K20T	3.12
K20I	2.63
K20L	3.04
K20Q	3.38
K20S	2.55
K20P	2.56
K20A	2.95
S23Y	2.03
S23C	2.9
S23E	2.49

Variant	protein stability index
S23L	2.89
S23P	2.96
S23T	2.71
S23I	2.45
S23D	2.85
S23W	2.54
S23K	2
S23A	2.39
S23Q	2.39
S23F	3.51
S23R	2.78
S23G	3.19
T22N	3.68
T22G	2.96
T22R	3.29
T22L	3.31
T22V	3.01
T22H	3.96
T22A	2.77
T22I	2.71
T22E	3.47
T22F	2.36
T22S	2.33
T22P	3.35
T22C	2.54
T22Y	2.75

Variant	protein stability index
T22D	2.05
T22Q	3.07
T22W	2.77
V21Q	1.85
V21H	2.9
V21S	3.11
V21M	3.27
V21L	2.06
V21Y	3.26
V21W	3.02
V21A	2.26
V21N	4.29
V21E	3.06
V21I	2.6
V21C	1.7
V21P	2.76
V21F	2.01
V21R	2.38
A24S	2.61
A24R	1.84
A24W	3.16
A24D	2.65
A24N	2.63
A24L	3.27
A24H	3.79
A24V	3.15

Variant	protein stability index
A24E	2.42
A24C	1.31
A24I	2.65
A24T	3.11
A24M	2.66
A24K	2.04
A24P	3.3
I19H	2.14
I19Q	3.62
I19F	2.69
I19E	2.87
I19L	3.06
I19W	4.11
I19V	3.21
I19G	3.04
I19P	2.86
I19D	2.73
I19S	2.42
I19T	3.51
I19Y	1.94
I19C	2.7
I19M	2.48
I19K	3.47

Variants of: B2
Assay: as above
Conditions: c terminus: a fixed tail appended

Variant	protein stability index
A7R	4.62
E15S	4.09
E15C	3.86
E21N	4
L3D	5.85
F17K	4.51
F17N	4.68
F17C	4.88
F17G	4.01
R12Y	4.59
E13D	4.11
E13C	2.42
E13F	3.63
E13G	3.71
E20N	4.61
E20H	4.49
E20P	4.3
E20Q	4.44
E22V	4.13
E22D	4.65
E22W	4.01
E22M	4.92

Variant	protein stability index
E22Q	4.25
Q2K	5.7
Q2R	5.09
Q2Y	4.31
F11T	5.27
F11R	5.8
F11P	5.57
F11H	5.21
R19H	4.77
R19W	4.4
R19Q	4.42
R19L	4.46
Y1Q	5.41
Y1C	5.21
E5R	3.48
L8T	4.88
E6C	3.51
E6N	4.43
E6Q	4.23
E6V	2.93
R24N	4.72
R24S	4.65

Variant	protein stability index
L9N	4.17
L9M	4.84
L9V	5.15
L9F	4.36
L9K	4.57
D23P	3.82
D23M	3.76
G16H	4.8
G16A	4.65
D14W	2.81
D14Q	3.88
D14A	3.32
G4T	4.12
K10V	2.88
K10A	4.01
K10E	5.37
K10R	4.09
V18T	4.54
V18G	4.43
V18Q	4.78
V18K	4.13
V18P	4.63
